Source: patent US20240279622A1, “COELENTERAZINE-UTILIZING LUCIFERASES WITH STABLE GLOW-TYPE LIGHT EMISSION AND METHODS OF PRODUCING AND USING THEREOF” (MASARYKOVA UNIVERZITA, priority 2021, published 2024)
Where a chain is given by its changes, count along the chain named. Numbers in names are those of the source. Values belong to the molecule of their own block, whether it stands above or below them.

Key:
[1] = Steady-state kinetic analysis of full-conversion cumulative luminescence curves; assay type: biochemical; details: for kcat / Kd: 100 mM phosphate buffer pH 7.5, 37° C.; for Kd: read-out: Kp (equilibrium dissociation constant for enzyme-product complex); for Glow-type effectivity: kcat/Km divided by Km/Kp; for Decrease of ratio Km/Kp: compared to the other tested variants
Procedure: Each luminescence trace was measured in 3 repetitions. The concentration of coelenterazine in the final reaction mixture ranged from 0.2 to 7.9 μM while the concentration of luciferase enzymes ranged from 17 to 640 nM.
An updated protocol applying new standards for collecting and fitting steady-state kinetic data was used. Unlike the classical initial velocity analysis, which requires a sophisticated luminometer calibration and quantum yield evaluation, luminescence data were recorded when letting the reaction proceed to completion beyond the initial linear phase. The recorded luminescence traces (rate vs. time) were transformed to reaction progress curves corresponding to cumulative luminescence in time. The transformed kinetic data (product vs. time) were fitted globally with the KinTek Explorer (KinTek Corporation, USA). The software allows for the input of a given kinetic model via a simple text description, and the program then derives the differential equations needed for numerical integration automatically.
Numerical integration of rate equations searching a set of kinetic parameters that produce a minimum χ^2 value was performed using the Bulirsch-Stoer algorithm with adaptive step size, and nonlinear regression to fit data was based on the Levenberg-Marquardt method. To account for fluctuations in experimental data, enzyme or substrate concentrations were slightly adjusted (5%) to derive best fits. Residuals were normalized by sigma values for each data point. The standard error was calculated from the covariance matrix during nonlinear regression. In addition to standard error values, more rigorous analysis of the variation of the kinetic parameters was accomplished by confidence contour analysis by using FitSpace Explorer (KinTek Corporation, USA). In these analyses, the lower and upper limits for each parameter were derived from the confidence contour obtained from setting χ^2 threshold at 0.9. The scaling factor, relating luminescence signal to product concentration, was applied as one of the fitted parameters, well constrained by end-point levels of kinetic traces recorded at particular substrate concentrations. Depletion of the available substrate after the reaction was ensured by repeated injection of the fresh enzyme.
The steady-state model, described by Equation (4), was used to obtain the values of turnover number kcat, Michaelis constant Km, and equilibrium dissociation constant for enzyme-product complex Kp. A conservative estimate for diffusion-limited substrate and product binding k1 and k3 (100 μM^−1·s^−1) was used as a fixed value to mimic the rapid equilibrium assumption. An alternative form of the model, described by Equation (5), was used to obtain estimates of kcat/Km directly by setting k−1=0.

[2] = Thermal unfolding by NanoDSF (tryptophan fluorescence); assay type: physicochemical; details: 100 mM potassium phosphate buffer pH 7.5, 1° C./min
Procedure: Thermal unfolding was studied using NanoDSF Prometheus (NanoTemper, Germany) by monitoring tryptophan fluorescence over the temperature range of 20 to 90° C., at a heating rate of 1° C./min. The melting temperatures (Tonset and Tm) were evaluated directly by ThermControl v2.0.2.

[3] = Stopped-flow pre-steady-state kinetics of substrate binding (tryptophan fluorescence quenching); details: 15° C.
Procedure: The measurement was performed at 15° C. in 100 mM potassium phosphate buffer pH 7.5. Rapid mixing of the components was achieved using the Stopped-Flow SFM 3000 combined with the MOS-500 spectrometer (BioLogic, France). The reaction was initiated by mixing 75 μL of an enzyme with 75 μL of coelenterazine and then monitored by the change of native tryptophan fluorescence (295 nm excitation, 340±13 nm emission). The fluorescence changes were caused by the quenching effect of the coelenterazine substrate upon its binding by an enzyme. The experiment was designed in two different modes, varying either the concentration of the coelenterazine substrate or the concentration of an enzyme. Each kinetic trace was measured in seven consecutive replicates and averaged. The concentration of coelenterazine in the final reaction mixture ranged from 0.9 to 90 μM while the concentration of luciferase enzymes ranged from 0.4 to 94 μM.
The collected double-exponential kinetic traces were fitted globally with the KinTek Explorer (KinTek Corporation, USA). The software allows for the input of a given kinetic model via a simple text description, and the program then derives the differential equations needed for numerical integration automatically. Numerical integration of rate equations searching a set of kinetic parameters that produce a minimum χ^2 value was performed using the Bulirsch-Stoer algorithm with adaptive step size, and nonlinear regression to fit data was based on the Levenberg-Marquardt method. Residuals were normalized by sigma values for each data point. The standard error was calculated from the covariance matrix during nonlinear regression. In addition to standard error values, more rigorous analysis of the variation of the kinetic parameters was accomplished by confidence contour analysis by using FitSpace Explorer (KinTek Corporation, USA). In these analyses, the lower and upper limits for each parameter were derived from the confidence contour obtained from setting the χ^2 threshold at 0.95.
The time-course of the fluorescence quenching upon substrate binding was described with Equation (7) according to the induced-fit binding mechanism and the mechanism was fit directly to the collected kinetic data to obtain the values of elementary rate constants describing the substrate binding process. The quality of the best fits was compared in terms of χ^2 values, “chi-by-eye” assessment, and confidence contour analysis assessing constraint and independency of the determined parameters which confirmed that the obtained values are well-defined by the collected kinetic data.

[4] = Anaerobic equilibrium binding of coelenterazine substrate (fluorescence)
Procedure: The experiments were performed under strictly anaerobic conditions to prevent enzymatic oxidation of interacting ligands. To do so, all the equipment and material, including water, buffer, pipettes, tips, syringes, microplates, and sealing, were made anaerobic by incubating them overnight in the anaerobic glovebox Belle MR2 (Belle Technology, UK). The box was filled with ultra-high purity (UHP) nitrogen atmosphere containing the residual oxygen concentration of 2.3 ppm, as determined by the oxygen meter O2M-3 (Belle Technology, UK). Liquids were aliquoted to the volume of maximally 50 mL and were stirred overnight in the box to release any dissolved oxygen. Two hours prior to the experiment, a closed bottle with an evacuated lyophilized enzyme (oxygen depleted) was put into the glovebox, dissolved with anaerobic water, and incubated to remove any remaining oxygen possibly dissolved in the solution. Similarly, the stock solution of coelenterazine or coelenteramide in ethanol, which was long-term stored in a freezer under the nitrogen atmosphere without oxygen, was put into the glovebox in a closed bottle. A small aliquot of coelenterazine/coelenteramide was transferred into a new empty bottle and kept open for about 20 minutes to remove the remaining dissolved oxygen. After the incubation, a few microliters of an enzyme were mixed with the same amount of coelenterazine, and the mixture was visually inspected for any possible bioluminescence. If no light was observed and the mixture remained yellow even after a minute, all the reagents were ready for anaerobic measurements.
(§1) In the anaerobic glovebox, 200 μL of a differently concentrated enzyme was put into a separate well in a microplate and into each of these wells, 5 μL of coelenterazine or coelenteramide stock solution was added. As a blank, 200 μL of the enzyme was mixed with 5 μL of ethanol for each enzyme concentration. […] The extent of coelenterazine binding at each concentration was determined by measuring fluorescence spectra ranging from 480 to 580 nm upon excitation at 420 nm using the microplate spectrophotometer Varioskan LUX (Thermo Scientific, USA). Binding of coelenteramide was monitored by measuring fluorescence spectra ranging from 350 to 700 nm upon excitation at 330 nm. […]
The obtained fluorescence spectra were visually inspected for characteristic peaks, and the value of the maximal fluorescence intensity Fluomax at these peaks was plotted against the enzyme concentration. The final value of the dissociation constant Kd was determined by fitting the dependence with the hyperbolic Equation (8) using the software Origin 6.1 (OriginLab, USA).

[5] = Anaerobic equilibrium binding of coelenteramide product (fluorescence); details: pH 7.5, 30° C., read-out: Dissociation constant Kd, Coelenteramide product
Procedure: The experiments were performed under strictly anaerobic conditions to prevent enzymatic oxidation of interacting ligands. To do so, all the equipment and material, including water, buffer, pipettes, tips, syringes, microplates, and sealing, were made anaerobic by incubating them overnight in the anaerobic glovebox Belle MR2 (Belle Technology, UK). The box was filled with ultra-high purity (UHP) nitrogen atmosphere containing the residual oxygen concentration of 2.3 ppm, as determined by the oxygen meter O2M-3 (Belle Technology, UK). Liquids were aliquoted to the volume of maximally 50 mL and were stirred overnight in the box to release any dissolved oxygen. […] If no light was observed and the mixture remained yellow even after a minute, all the reagents were ready for anaerobic measurements.
as §1, with “added.” for “added. As a blank, 200 μL of the enzyme was mixed with 5 μL of ethanol for each enzyme concentration.”

Kd [1]: 920 ± 10 nM
B1: Super RLuc8: Recently reported RLuc8 enzyme variant (Rahnama et el., 2017) (protein)
chain: MTSKVYDPEQRKRMITGPQWWARCKQMNVLDSFINYYDSEKHAENAVIFLHGNATSSYLWRHVVPHIEPVARCIIPDLIGMGKSGKSGNGSYRLLDHYKYLTAWFELLNLPKKIIFVGHDWGSALAFHYAYEHQDRIKAIVHMESVVDVIESWKNWPDIEEELALIKSEEGEKMVLENNFFVETVLPSVIMRKLEPEEFAAYLEPFKEKGEVRRPTLSWPREIPLVKGGKPDVVQIVRNYNAYLRASDDLPKLFIESDPGWFSNAIIEGAKKFPNTEFVKVKGLHFLQEDAPDEMGKYIKSFVERVLKNEQ
modifications: Super RLuc8
kcat [1]: 6.49 ± 0.05 s⁻¹ | Glow-type effectivity [1]: 0.17 ± 0.02 | Tm [2]: 50.1 ± 0.2 °C | Tonset [2]: 39.1 ± 0.3 °C

Kd [1]: 500 ± 100 nM | k+2 ([3]; pH 7.5): 31.9 ± 1.1 s⁻¹ | k−1 ([3]; pH 7.5): 367 ± 5 s⁻¹ | k−2 ([3]; pH 7.5): 27.5 ± 0.4 s⁻¹ | k+1 ([3]; pH 7.5, induced-fit binding mechanism): 5.21e+06 ± 70000 M⁻¹ s⁻¹ | Kd ([4]; anaerobic, pH 7.5, 30° C., read-out: Dissociation constant Kd, Coelenterazine substrate): 12000 ± 5000 nM | Kd ratio substrate/product ([4]; ratio): 0.7 ± 0.3 | Kd [5]: 16000 ± 2000 nM
B2: AncFT: Ancestral protein AncHLD-RLuc with the L9-α4 region transplanted from RLuc; glow-type coelenterazine-utilizing luciferase (protein)
chain: MVSASQRTTSTATGDEWWAKCKQVDVLDSEMSYYDSDPGKHKNTVIFLHGNPTSSYLWRNVIPHVEPLARCLAPDLIGMGKSGKLPNHSYRFVDHYRYLSAWFDSVNLPEKVTIVCHDWGSGLGFHWCNEHRDRVKGIVHMESVVDVIESWDEWPDIEEDIALIKSEAGEEMVLKKNFFIERLLPSSIMRKLSEEEMDAYREPFVEPGESRRPTLTWPREIPIKGDGPEDVIEIVKSYNKWLSTSKDIPKLFINADPGFFSNAIKKVTKNWPNQKTVTVKGLHFLQEDSPEEIGEAIADFLNELTK
modifications: Amino acid sequence of AncFT
kcat [1]: 0.111 ± 0.001 s⁻¹ | Decrease of ratio Km/Kp [1]: 10 fold | Glow-type effectivity [1]: 12 ± 3 | Tm [2]: 56.6 ± 0.1 °C | Tonset [2]: 50.5 ± 0.1 °C

Kd [1]: 230 ± 10 nM
B3: AncFT-D160A: AncFT carrying the single-point D160A mutation; blue-shifted emission (protein)
chain: B2 chain with D160A
modifications: Amino acid sequence of AncFT-D160A
notes: AncFT carrying the single-point D160A mutation; blue-shifted emission
kcat [1]: 0.339 ± 0.001 s⁻¹ | Decrease of ratio Km/Kp [1]: 10 fold | Glow-type effectivity [1]: 3.6 ± 0.3 | Tm [2]: 57.9 ± 0.1 °C | Tonset [2]: 51.5 ± 0.1 °C

Kd [1]: 550 ± 30 nM
B4: AncFT-L14: AncFT with additionally transplanted L14 loop (LVKGGKP at positions 223 to 229) from RLuc (protein)
chain: B2 chain with I223L, K224V, G225K, D226G, P228K, E229P
modifications: Amino acid sequence of AncFT-L14
notes: AncFT with additionally transplanted L14 loop (LVKGGKP at positions 223 to 229) from RLuc
kcat [1]: 0.168 ± 0.001 s⁻¹ | Improvement of glow-type effectivity ([1]; compared to AncFT): 4 fold | Improvement of glow-type effectivity ([1]; compared to RLuc8): more than 20 fold | Decrease of ratio Km/Kp [1]: 10 fold | Glow-type effectivity [1]: 48 ± 6 | Tm [2]: 47.0 ± 0.1 °C | Tonset [2]: 39.8 ± 0.2 °C
